Reference: US20150056222A1 (Regeneron, published 2015)

T1: mouse PRLR on HEK293 cells (mouse, UniProt Q08501 20-608)
T1 construct: whole, on cells; also called mPRLR; HEK293/mPRLR
T1 sequence (looked up): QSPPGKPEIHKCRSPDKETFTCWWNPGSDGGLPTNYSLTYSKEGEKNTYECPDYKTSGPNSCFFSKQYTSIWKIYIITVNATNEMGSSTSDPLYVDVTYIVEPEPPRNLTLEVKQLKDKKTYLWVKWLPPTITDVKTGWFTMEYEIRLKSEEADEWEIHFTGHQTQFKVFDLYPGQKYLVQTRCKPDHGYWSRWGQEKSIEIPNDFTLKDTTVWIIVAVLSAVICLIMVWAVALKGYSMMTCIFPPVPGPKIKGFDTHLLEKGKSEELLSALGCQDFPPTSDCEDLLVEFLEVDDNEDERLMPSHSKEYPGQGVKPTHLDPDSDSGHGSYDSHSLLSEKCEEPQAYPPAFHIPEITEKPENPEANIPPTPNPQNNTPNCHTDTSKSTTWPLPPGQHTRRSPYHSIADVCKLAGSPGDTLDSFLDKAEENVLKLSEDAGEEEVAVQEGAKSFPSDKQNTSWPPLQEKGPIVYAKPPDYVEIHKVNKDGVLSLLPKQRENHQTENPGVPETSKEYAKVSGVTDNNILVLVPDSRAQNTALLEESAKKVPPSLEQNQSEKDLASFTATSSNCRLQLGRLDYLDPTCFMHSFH

T2: hPRLR.mFc (soluble dimeric human PRLR) (human)
T2 construct: dimeric construct
T2 chain: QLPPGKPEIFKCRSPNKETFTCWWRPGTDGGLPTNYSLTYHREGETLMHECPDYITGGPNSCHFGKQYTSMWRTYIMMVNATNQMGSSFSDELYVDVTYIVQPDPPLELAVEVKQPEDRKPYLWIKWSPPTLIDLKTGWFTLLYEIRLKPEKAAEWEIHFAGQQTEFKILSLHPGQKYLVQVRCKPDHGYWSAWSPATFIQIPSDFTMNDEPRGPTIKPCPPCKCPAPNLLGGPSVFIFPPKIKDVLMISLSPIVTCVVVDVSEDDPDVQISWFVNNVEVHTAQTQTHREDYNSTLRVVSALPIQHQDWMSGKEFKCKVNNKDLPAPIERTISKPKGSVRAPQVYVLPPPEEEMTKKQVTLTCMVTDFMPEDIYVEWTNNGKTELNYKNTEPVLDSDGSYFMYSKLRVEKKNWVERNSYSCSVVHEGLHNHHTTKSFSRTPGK

T3: hPRLR.mmh (soluble monomeric human PRLR) (human)
T3 construct: soluble monomeric construct
T3 chain: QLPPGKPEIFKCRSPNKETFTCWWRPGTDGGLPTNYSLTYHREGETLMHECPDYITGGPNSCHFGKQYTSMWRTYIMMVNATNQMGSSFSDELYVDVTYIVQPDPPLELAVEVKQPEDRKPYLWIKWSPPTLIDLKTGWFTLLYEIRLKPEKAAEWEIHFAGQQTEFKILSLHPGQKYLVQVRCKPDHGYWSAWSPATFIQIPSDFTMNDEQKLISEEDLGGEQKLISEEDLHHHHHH

T4: mfPRLR.mmh (soluble monomeric macaca fascicularis PRLR) (macaca fascicularis)
T4 construct: soluble monomeric construct; also called macaca fascicularis (mf) PRLR.mmh
T4 chain: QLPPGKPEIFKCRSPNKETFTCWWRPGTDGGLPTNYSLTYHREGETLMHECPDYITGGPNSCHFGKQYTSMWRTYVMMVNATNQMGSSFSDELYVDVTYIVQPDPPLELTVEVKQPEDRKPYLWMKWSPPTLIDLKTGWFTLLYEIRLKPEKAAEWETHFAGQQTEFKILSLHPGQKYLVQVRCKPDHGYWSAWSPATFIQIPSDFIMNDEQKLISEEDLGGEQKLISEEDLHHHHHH

T5: human prolactin receptor (PRLR) on cells (human, UniProt P16471 25-622)
T5 sequence: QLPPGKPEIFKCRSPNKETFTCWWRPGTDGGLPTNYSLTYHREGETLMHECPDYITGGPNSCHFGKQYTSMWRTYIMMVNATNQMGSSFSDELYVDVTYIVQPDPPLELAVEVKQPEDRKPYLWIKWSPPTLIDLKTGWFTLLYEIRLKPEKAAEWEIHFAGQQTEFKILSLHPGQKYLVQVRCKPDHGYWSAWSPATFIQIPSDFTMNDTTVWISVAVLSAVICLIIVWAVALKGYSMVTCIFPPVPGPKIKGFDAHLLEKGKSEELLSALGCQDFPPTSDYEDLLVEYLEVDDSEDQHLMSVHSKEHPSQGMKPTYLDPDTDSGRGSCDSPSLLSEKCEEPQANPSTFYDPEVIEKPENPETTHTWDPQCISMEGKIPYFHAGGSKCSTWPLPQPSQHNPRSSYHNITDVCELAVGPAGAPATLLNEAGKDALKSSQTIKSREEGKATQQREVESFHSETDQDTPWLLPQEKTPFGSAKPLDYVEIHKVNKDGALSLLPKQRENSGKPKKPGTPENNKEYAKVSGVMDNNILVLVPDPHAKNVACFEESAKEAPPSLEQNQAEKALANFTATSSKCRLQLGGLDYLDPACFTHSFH

T6: monkey (macaca fascicularis) PRLR on HEK293 cells (macaca fascicularis, UniProt A0A2K5WXK1 25-619)
T6 construct: also called mfPRLR; HEK293/mfPRLR
T6 sequence: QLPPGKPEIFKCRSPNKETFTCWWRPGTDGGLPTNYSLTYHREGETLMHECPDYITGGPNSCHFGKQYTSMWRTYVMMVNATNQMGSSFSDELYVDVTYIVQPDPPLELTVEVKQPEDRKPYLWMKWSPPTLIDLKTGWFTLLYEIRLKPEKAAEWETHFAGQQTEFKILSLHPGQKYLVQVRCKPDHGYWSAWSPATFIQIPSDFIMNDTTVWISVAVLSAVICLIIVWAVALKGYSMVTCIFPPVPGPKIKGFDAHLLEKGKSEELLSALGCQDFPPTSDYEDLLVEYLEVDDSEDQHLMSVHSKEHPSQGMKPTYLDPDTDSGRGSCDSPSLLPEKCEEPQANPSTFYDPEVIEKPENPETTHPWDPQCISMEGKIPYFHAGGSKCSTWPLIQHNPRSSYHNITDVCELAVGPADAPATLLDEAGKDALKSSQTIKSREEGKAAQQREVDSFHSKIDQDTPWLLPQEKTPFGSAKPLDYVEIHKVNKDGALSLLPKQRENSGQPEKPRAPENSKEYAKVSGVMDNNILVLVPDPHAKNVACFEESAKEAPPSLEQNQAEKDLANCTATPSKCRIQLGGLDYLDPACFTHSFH


Assays:
[1] = biological target: T1, mouse PRLR on HEK293 cells; test: FACS, HEK293/mPRLR cells; also: test concentration or dose not given here
[2] = biological target: T2, hPRLR.mFc (soluble dimeric human PRLR); test: SPR, 37C, mAb capture
Method: (§1) Measurements were conducted on a T200 Biacore instrument. Kinetic association (kₐ) and dissociation (kd) rate constants were determined by processing and fitting the data to a 1:1 binding model using Scrubber 2.0 curve fitting software. Binding dissociation equilibrium constants (KD) and dissociative half-lives (t_{1/2}) were calculated from the kinetic rate constants as: KD (M)=kd/kₐ; and […].

[3] = biological target: T3, hPRLR.mmh (soluble monomeric human PRLR); test: SPR, 37C, mAb capture
Method: as §1

[4] = biological target: T4, mfPRLR.mmh (soluble monomeric macaca …); test: SPR, 37C, mAb capture
Method: as §1

[5] = biological target: T5, human prolactin receptor (PRLR) on cells; test: cell-based or functional assay
[6] = biological target: T6, monkey (macaca fascicularis) PRLR on …; test: FACS, HEK293/mfPRLR cells; also: test concentration or dose not given here
[7] = biological target: T5, human prolactin receptor (PRLR) on cells; test: FACS, T47D cells (native PRLR); also: test concentration or dose not given here
[8] = biological target: T5, human prolactin receptor (PRLR) on cells; test: FACS, HEK293/hPRLR cells; also: test concentration or dose not given here

Row | Binder | FACS Cell Binding (Fold Above Background) [1] [fold above background] | T½ [2] [min] | T½ [3] [min] | T½ [4] [min] | % Internalization relative to Control I (alexa488 intensity in intracellular vesicles at 37 C, T47D cells) [5] [%] | FACS Cell Binding (Fold Above Background) [6] [fold above background] | FACS Cell Binding (Fold Above Background) [7] [fold above background] | FACS Cell Binding (Fold Above Background) [8] [fold above background]
1 | H1H6765P (antibody, human IgG1, V domains shown, human IgG1 Fc (H1H)) VH: EVQLVESGGGVVRPGGSLRLSCVGSGFSFDDHGMNWVRQGPGKGLEWVSGFNWNGGSTNYAESVKGRFTISRDNARNSLFLQMNSLRAEDTALYYCVRGRSGWFNDAFDVWGPGTMVTVSS VL: EIVLTQSPGTLSLSPGERATLSCRASQTINSNYLAWYRQKPGQTPRLLIYGTSSRATGIPDRFSGSGSGTDFSLTISRLEPEDFAVFYCQQYAGLPTFGPGTKVDIK | 1 | 112 | 32 | 215 | 186 | 27 | 40 | 38
2 | H1H6782P (antibody, human IgG1, V domains shown, human IgG1 Fc (H1H)) VH: EVQLVESGGGLVQPGRSLRLSCAASGFTFDDYAMHWVRQAPGKGLEWVSGIIWNSGHIGYGDSVKGRFTISRDNAKKSLYLQMNSLRAEDTALYYCARDSGRYQSYFDYWGQGTLVTVSS VL: DIQMTQSPSTLSASVGDRVTITCRASHIISSWLAWYQQKPGKAPKVLIFKASSLESGVPSRFSGSGSGTEFTLTISSLQPDDFATYYCQQYNTYSRTFGQGTKVEIK | 4 | 89 | 16 | 15 | 179 | 32 | 43 | 41
3 | H1H6785P (antibody, human IgG1, V domains shown, human IgG1 Fc (H1H)) VH: EVQLVESGGGLVQPGGSLRLSCAASGFTFSSYEMNWVRQAPGKGLEWISYISSRGGTIYYADSIKGRFTIYRDNARNSLYLQMNSLRAEDTAIYYCARLSGVDIFDIWGQGTMVTVSS VL: DIQMTQSPSSLSASVGDRVTITCRASQGISNYLAWYQQKPGKVPKLLIYFASTLQSGVPSRFSGGGSGTDFTLTISSLQPEDVATYYCQRYNSAPLTFGGGTKVEIK | 2 | 99 | 24 | 26 | 169 | 26 | 40 | 37

The next lines start with the values.

Row | FACS Cell Binding (Fold Above Background) [1] [fold above background] | T½ [2] [min] | T½ [3] [min] | T½ [4] [min] | % Internalization relative to Control I (alexa488 intensity in intracellular vesicles at 37 C, T47D cells) [5] [%] | FACS Cell Binding (Fold Above Background) [6] [fold above background] | FACS Cell Binding (Fold Above Background) [7] [fold above background] | FACS Cell Binding (Fold Above Background) [8] [fold above background] | Binder
4 | 1 | 82.6 | 3.7 | 3.7 | 170 | 29 | 37 | 8 | H1H6976N (antibody, human IgG1, V domains shown, also called H2M6976N) VH: EVQLLESGGGFVQPGGSLRLSCAASGFTFSSYAMSWVRQAPGKGLEWVSIISSNGRYTYYADSVKGRFTISRDNSKNTLYLQMNSLRAEDTAVYYCATVTGDWFDPWGQGTLVTVSS VL: DIQLTQSPSFLSASVGDRVTITCWASQDIDISLAWYQQKPGKAPKLLIYAASTLQSGVPSKFSGSGSGTDFTLTISSLQPEDFSTYYCQQLNSYPITFGQGTRLDIK
5 | 1 | 83.3 | 8.8 | 8.6 | 169 | 30 | 37 | 35 | H1H6958N2 (antibody, human IgG1, V domains shown, also called H2M6958N2) VH: QVQLVESGGGVVQPGRSLRLSCGASGFTFRNYGMQWVRQGPGKGLEWVTLISFDGNDKYYADSVKGRFTISRDNSKNTLFLQMNSLRTEDTAVYYCARGGDFDYWGQGTLVTVSS VL: DIQMTQSPSSLSASVGDRVTITCRASQDIRKDLGWYQQKPGKAPKRLIYAASSLHSGVPSRFSGSGSGTEFTLTISSLQPEDFATYYCLQHNSYPMYTFGQGTKLEIK
6 | 2 | 81 | 11 | 11 | 180 | 32 | 43 | 2 | H1H6793P (antibody, human IgG1, V domains shown, human IgG1 Fc (H1H)) VH: EVQLVESGGGLVQPGGSLRLSCAASGFSFSIYAMSWFRQAPGKGLEWVSAINGRGDGTHYADSVKGRFTISRDNSKTTLYLQMSSLRAEDTAVYYCAKPVMSTNGFDIWGQGTMVTVSS VL: DIQMTQSPSTLSASVGDRVTITCRASQSISSWLAWYQLKPGKAPKLLIYKASNLESGVPSRFSGSGSGTEFTLTISSLQPDDFATYYCQQYNIYWTFGQGTKVEIK
